US20230265151A1, “GIP/GLP1 CO-AGONIST COMPOUNDS” (priority 2020, published 2023)
Changes are numbered by the printed parent chain.

T1: human GIP receptor (human, UniProt P48546 22-466)
T1 sequence (looked up): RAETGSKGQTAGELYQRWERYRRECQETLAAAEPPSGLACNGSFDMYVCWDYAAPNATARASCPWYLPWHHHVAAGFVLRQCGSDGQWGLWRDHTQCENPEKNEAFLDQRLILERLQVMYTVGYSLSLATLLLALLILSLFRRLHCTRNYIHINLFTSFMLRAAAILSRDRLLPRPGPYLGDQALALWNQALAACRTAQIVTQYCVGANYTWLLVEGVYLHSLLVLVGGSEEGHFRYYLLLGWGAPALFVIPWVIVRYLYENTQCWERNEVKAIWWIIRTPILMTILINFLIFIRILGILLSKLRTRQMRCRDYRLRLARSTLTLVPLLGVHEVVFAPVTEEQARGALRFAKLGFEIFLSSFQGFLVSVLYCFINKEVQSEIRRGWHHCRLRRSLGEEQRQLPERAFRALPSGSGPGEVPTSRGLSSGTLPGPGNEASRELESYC

B1: Example 222 (peptide)
peptide: YXEGTXTSDXSIXLDXIAQXKFIXXLIKGGPSSGAPPPS
modifications: Y-Aib-EGT-αMeF(2F)-TSD-4Pal-SI-αMeL-LD-Orn-IAQ-Aib-K((2-[2-(2-Amino-ethoxy)-ethoxy]-acetyl)2-CO-(CH2)12-CO2H)Fl-(D-Glu)-αMeY-LIK((2-[2-(2-Amino-ethoxy)-ethoxy]-acetyl)2-CO-(CH2)12-CO2H)GGPSSGAPPPS-NH2 …
B2: Example 224 (peptide)
peptide: B1 peptide with I17K, K21E
modifications: Y-Aib-EGT-αMeF(2F)-TSD-4Pal-SI-αMeL-LD-Orn-K((2-[2-(2-Amino-ethoxy)-ethoxy]-acetyl)3-(γ-Glu)-CO-(CH2)12-CO2H)AQ-Aib-EFI-(D-Glu)-αMeY-LIK((2-[2-(2-Amino-ethoxy)-ethoxy]-acetyl)3-(γ-Glu)-CO-(CH2)12-CO2H)GGPSSGAPPPS-NH2
B3: Example 256 (peptide)
peptide: B1 peptide with I17K, K21E
modifications: Y-Aib-EGT-αMeF(2F)-TSD-2Nal-SI-αMeL-LD-Orn-K((2-[2-(2-Amino-ethoxy)-ethoxy]-acetyl)2-CO-(CH2)12-CO2H)AQ-Aib-EFI-(D-Glu)-αMeY-LIK((2-[2-(2-Amino-ethoxy)-ethoxy]-acetyl)2-CO-(CH2)12-CO2H)GGPSSGAPPPS-NH2 …
B4: Example 260 (peptide)
peptide: B1 peptide with I17K, K21E
modifications: Y-Aib-EGT-αMeF(2F)-TSD-OMeY-SI-αMeL-LD-Orn-K((2-[2-(2-Amino-ethoxy)-ethoxy]-acetyl)2-(γ-Glu)-CO-(CH2)12-CO2H)AQ-Aib-EFI-(D-Glu)-αMeY-LIK((2-[2-(2-Amino-ethoxy)-ethoxy]-acetyl)2-(γ-Glu)-CO-(CH2)12-CO2H)GGPSSGAPPPS-NH2
B5: Example 266 (peptide)
peptide: B1 peptide with I17K, K21E
modifications: Y-Aib-EGT-αMeF(2F)-TSD-OMeY-SI-αMeL-LD-Orn-K((2-[2-(2-Amino-ethoxy)-ethoxy]-acetyl)2-CO-(CH2)12-CO2H)AQ-Aib-EFI-(D-Glu)-αMeY-LIK((2-[2-(2-Amino-ethoxy)-ethoxy]-acetyl)2-CO-(CH2)12-CO2H)GGPSSGAPPPS-NH2 …
B6: Example 250 (peptide)
peptide: B1 peptide with I17K, K21E
modifications: Y-Aib-EGT-αMeF(2F)-TSD-2Nal-SI-αMeL-LD-Orn-K((2-[2-(2-Amino-ethoxy)-ethoxy]-acetyl)2-(γ-Glu)-CO-(CH2)12-CO2H)AQ-Aib-EFI-(D-Glu)-αMeY-LIK((2-[2-(2-Amino-ethoxy)-ethoxy]-acetyl)2-(γ-Glu)-CO-(CH2)12-CO2H)GGPSSGAPPPS-NH2
B7: Example 221 (peptide)
peptide: YXEGTXTSDXSIXLDXKAQXEFIXXLIEGGPSSGAPPPSK
modifications: Y-Aib-EGT-αMeF(2F)-TSD-4Pal-SI-αMeL-LD-Orn-K((2-[2-(2-Amino-ethoxy)-ethoxy]-acetyl)2-CO-(CH2)12-CO2H)AQ-Aib-EFI-(D-Glu)-αMeY-LIEGGPSSGAPPPSK((2-[2-(2-Amino-ethoxy)-ethoxy]-acetyl)2-CO-(CH2)12-CO2H)-NH2
B8: Example 261 (peptide)
peptide: B7 peptide
modifications: Y-Aib-EGT-αMeF(2F)-TSD-OMeY-SI-αMeL-LD-Orn-K((2-[2-(2-Amino-ethoxy)-ethoxy]-acetyl)2-(γ-Glu)-CO-(CH2)12-CO2H)AQ-Aib-EFI-(D-Glu)-αMeY-LIEGGPSSGAPPPSK((2-[2-(2-Amino-ethoxy)-ethoxy]-acetyl)2-(γ-Glu)-CO-(CH2)12-CO2H)-NH2
B9: Example 254 (peptide)
peptide: B7 peptide with K17I, E21K
modifications: Y-Aib-EGT-αMeF(2F)-TSD-2Nal-SI-αMeL-LD-Orn-IAQ-Aib-K((2-[2-(2-Amino-ethoxy)-ethoxy]-acetyl)2-(γ-Glu)-CO-(CH2)12-CO2H)FI-(D-Glu)-αMeY-LIEGGPSSGAPPPSK((2-[2-(2-Amino-ethoxy)-ethoxyl-acetyl)2-(γ-Glu)-CO-(CH2)12-CO2H)-NH2
B10: Example 251 (peptide)
peptide: B7 peptide
modifications: Y-Aib-EGT-αMeF(2F)-TSD-2Nal-SI-αMeL-LD-Orn-K((2-[2-(2-Amino-ethoxy)-ethoxy]-acetyl)2-(γ-Glu)-CO-(CH2)12-CO2H)AQ-Aib-EFI-(D-Glu)-αMeY-LIEGGPSSGAPPPSK((2-[2-(2-Amino-ethoxy)-ethoxyl-acetyl)2-(γ-Glu)-CO-(CH2)12-CO2H)-NH2
B11: Example 225 (peptide)
peptide: B7 peptide
modifications: Y-Aib-EGT-αMeF(2F)-TSD-4Pal-SI-αMeL-LD-Orn-K((2-[2-(2-Amino-ethoxy)-ethoxy]-acetyl)3-(γ-Glu)-CO-(CH2)12-CO2H)AQ-Aib-EFI-(D-Glu)-αMeY-LIEGGPSSGAPPPSK((2-[2-(2-Amino-ethoxy)-ethoxy]-acetyl)3-(γ-Glu)-CO-(CH2)12-CO2H)-NH2
B12: Example 258 (peptide)
peptide: B7 peptide with K17I, E21K
modifications: Y-Aib-EGT-αMeF(2F)-TSD-2Nal-SI-αMeL-LD-Orn-IAQ-Aib-K((2-[2-(2-Amino-ethoxy)-ethoxy]-acetyl)2-CO-(CH2)12-CO2H)Fl-(D-Glu)-αMeY-LIEGGPSSGAPPPSK((2-[2-(2-Amino-ethoxy)-ethoxy]-acetyl)2-CO-(CH2)12-CO2H)-NH2
B13: Example 267 (peptide)
peptide: B7 peptide
modifications: Y-Aib-EGT-αMeF(2F)-TSD-OMeY-SI-αMeL-LD-Orn-K((2-[2-(2-Amino-ethoxy)-ethoxy]-acetyl)2-CO-(CH2)12-CO2H)AQ-Aib-EFI-(D-Glu)-αMeY-LIEGGPSSGAPPPSK((2-[2-(2-Amino-ethoxy)-ethoxy]-acetyl)2-CO-(CH2)12-CO2H)-NH2
B14: Example 228 (peptide)
peptide: B7 peptide with K17I, E21K
modifications: Y-Aib-EGT-αMeF(2F)-TSD-4Pal-SI-αMeL-LD-Orn-IAQ-Aib-K((2-[2-(2-Amino-ethoxy)-ethoxy]-acetyl)3-(γ-Glu)-CO-(CH2)12-CO2H)FI-(D-Glu)-αMeY-LIEGGPSSGAPPPSK((2-[2-(2-Amino-ethoxy)-ethoxy]-acetyl)3-(γ-Glu)-CO-(CH2)12-CO2H)-NH2
B15: Example 257 (peptide)
peptide: B7 peptide
modifications: Y-Aib-EGT-αMeF(2F)-TSD-2Nal-SI-αMeL-LD-Orn-K((2-[2-(2-Amino-ethoxy)-ethoxy]-acetyl)2-CO-(CH2)12-CO2H)AQ-Aib-EFI-(D-Glu)-αMeY-LIEGGPSSGAPPPSK((2-[2-(2-Amino-ethoxy)-ethoxy]-acetyl)2-CO-(CH2)12-CO2H)-NH2
B16: Example 264 (peptide)
peptide: B7 peptide with K17I, E21K
modifications: Y-Aib-EGT-αMeF(2F)-TSD-OMeY-SI-αMeL-LD-Orn-IAQ-Aib-K((2-[2-(2-Amino-ethoxy)-ethoxy]-acetyl)2-(γ-Glu)-CO-(CH2)12-CO2H)FI-(D-Glu)-αMeY-LIEGGPSSGAPPPSK((2-[2-(2-Amino-ethoxy)-ethoxyl-acetyl)2-(γ-Glu)-CO-(CH2)12-CO2H)-NH2

Experiments:
Assay in all cases: cell-based or functional assay
[1] = molecular target: T1, human GIP receptor
[2] = molecular target: human glucagon receptor (human, UniProt P47871 26-477)
[3] = molecular target: human GLP-1 receptor (human, UniProt P43220 24-463)

Row | Binder | cAMP EC50 (1.0% HSA) [1] [nM] | cAMP EC50 (1.0% HSA) [2] [nM] | cAMP EC50 (1.0% HSA) [3] [nM] | cAMP Emax (1.0% HSA) [3] [%] | cAMP Emax (1.0% HSA) [1] [%]
1 | B1 | 2.1 | > 9950 | 13.8 | 117 | 
2 | B2 | 2.92 | > 9950 | 71 |  | 
3 | B3 | 1.5 | > 9950 | 12.6 |  | 75.3
4 | B4 | 3.27 | > 9950 | 32 |  | 
5 | B5 | 0.575 | > 9950 | 5.83 |  | 
6 | B6 | 38.8 | > 9950 | 63 |  | 
7 | B7 | 0.838 | > 9950 | 17.9 |  | 67.4
8 | B8 | 2.28 | > 9950 | 15.6 |  | 75.7
9 | B9 | 16.8 | > 9950 | 211 | 122 | 68.5
10 | B10 | 14.3 | > 9950 | 51 |  | 71.2
11 | B11 | 1.81 | > 9950 | 51.6 |  | 67.5
12 | B12 | 5.28 | > 9950 | 41.5 |  | 84.3
13 | B13 | 0.808 | > 9950 | 8.46 |  | 
14 | B14 | 3.37 | > 9950 | 42 | 119 | 83.3
15 | B15 | 5.61 | > 9950 | 46.3 |  | 72.2
16 | B16 | 7.12 | > 9950 | 75.2 |  | 84.4
